Here are results for 1 molecule from KR20160086217A (dated 2016).

The target of assay [1] is T1, c-Met (UniProt P08581 25-932, limits assumed).
T1 construct: also called 항원인 c-Met
Kind of assay: SPR, Biacore T100; antibody (from GSKO 301 GS cells) captured on Human Fab binder on CM5 chip, c-Met as analyte, 1:1 kinetic fit; rounded form of the value in r2. (Surface plasmon resonance follows binding to a sensor surface in real time, without labels.)

The target in assay [2] is T1, c-Met. The assay is described as follows: SPR, Biacore T100; antibody (from GSKO 301 GS cells) captured on Human Fab binder on CM5 chip, c-Met as analyte 25 to 0.78 nmol, 1:1 kinetic fit.
The target in assay [3] is T1, c-Met. Kind of assay: SPR, Biacore T100; antibody (from GSKO GLUD1 301 GS cells) captured on Human Fab binder on CM5 chip, c-Met as analyte 25 to 0.78 nmol, 1:1 kinetic fit.
The target of assay [4] is T1, c-Met. Kind of assay: SPR, Biacore T100; antibody (from GSKO GLUD1 301 GS cells) captured on Human Fab binder on CM5 chip, c-Met as analyte, 1:1 kinetic fit; rounded form of the value in r2.

A word on the Kd: it is the free concentration of one partner at which half of the binding sites on the other are occupied at equilibrium, for simple one-to-one binding. Lower therefore signals higher affinity.

T1 sequence (P08581 25-932 limits assumed): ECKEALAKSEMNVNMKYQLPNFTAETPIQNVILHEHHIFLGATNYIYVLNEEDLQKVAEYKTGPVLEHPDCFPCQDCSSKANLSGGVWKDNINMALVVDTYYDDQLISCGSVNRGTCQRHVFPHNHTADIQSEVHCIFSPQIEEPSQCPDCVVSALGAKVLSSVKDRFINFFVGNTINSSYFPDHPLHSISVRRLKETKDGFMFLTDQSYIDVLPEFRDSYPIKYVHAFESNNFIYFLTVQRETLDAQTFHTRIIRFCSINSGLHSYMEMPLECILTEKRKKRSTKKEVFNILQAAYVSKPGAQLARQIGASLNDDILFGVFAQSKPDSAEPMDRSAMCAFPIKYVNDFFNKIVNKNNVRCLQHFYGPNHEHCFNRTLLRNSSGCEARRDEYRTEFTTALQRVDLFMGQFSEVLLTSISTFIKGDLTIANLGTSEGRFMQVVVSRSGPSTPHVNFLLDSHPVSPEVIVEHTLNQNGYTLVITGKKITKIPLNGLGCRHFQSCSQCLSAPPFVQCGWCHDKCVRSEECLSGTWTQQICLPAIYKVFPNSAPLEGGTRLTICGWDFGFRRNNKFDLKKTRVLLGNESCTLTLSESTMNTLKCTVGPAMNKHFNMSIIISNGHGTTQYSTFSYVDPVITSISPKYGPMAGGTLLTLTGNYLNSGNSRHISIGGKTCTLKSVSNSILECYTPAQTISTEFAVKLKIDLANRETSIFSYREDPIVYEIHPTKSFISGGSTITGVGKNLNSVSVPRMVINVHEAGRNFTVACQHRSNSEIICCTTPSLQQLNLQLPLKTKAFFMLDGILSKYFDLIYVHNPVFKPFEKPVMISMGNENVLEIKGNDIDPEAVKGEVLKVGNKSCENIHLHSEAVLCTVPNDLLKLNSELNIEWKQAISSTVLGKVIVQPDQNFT

B1: 항 c-Met 항체 L3-1Y/IgG2 (antibody, V domains shown)
VH: EVQLVESGGGLVQPGGSLRLSCAASGFTFTDYYMSWVRQAPGKGLEWLGFIRNKANGYTTEYSASVKGRFTISRDNSKNTLYLQMNSLRAEDTAVYYCARDNWFAYWGQGTLVTVSS
VL: DIQMTQSPSSLSASVGDRVTITCKSSQSLLASGNQNNYLAWYQQKPGKAPKMLIIWASTRVSGVPSRFSGSGSGTDFTLTISSLQPEDFATYYCQQSYSRPYTFGQGTKVEIKR
notes: also called S301-12A37 standard; S301-12A37
As to B1, the Kd in assay [1] is 0.06 nM; in assay [2], 0.0573 nM; in assay [3] it was 0.0926 nM; in assay [4], 0.09 nM.
